Test results as given in article PMC9482650, “Quantitative fragmentomics allow affinity mapping of interactomes” (Nature Communications, 2022).

T1: SNTG2, Q9NY99
T1 sequence (Q9NY99 68-166, limits assumed, looked up): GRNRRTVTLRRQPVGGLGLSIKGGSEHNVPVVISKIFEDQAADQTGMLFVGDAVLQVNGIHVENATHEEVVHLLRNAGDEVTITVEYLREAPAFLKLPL

T2: TIAM2, Q8IVF5
T2 sequence (Q8IVF5 885-986, limits assumed, looked up): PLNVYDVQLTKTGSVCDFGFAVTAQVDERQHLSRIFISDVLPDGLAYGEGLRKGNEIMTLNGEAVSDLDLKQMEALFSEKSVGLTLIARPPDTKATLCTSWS

T3: PARD3B_1, Q8TEW8
T3 sequence (Q8TEW8 196-299, limits assumed, looked up): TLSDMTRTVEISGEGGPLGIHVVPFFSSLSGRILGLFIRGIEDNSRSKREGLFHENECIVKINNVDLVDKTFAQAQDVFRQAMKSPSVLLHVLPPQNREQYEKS

T4: NHERF3_3, Q5T2W1
T4 sequence (Q5T2W1 238-333, limits assumed, looked up): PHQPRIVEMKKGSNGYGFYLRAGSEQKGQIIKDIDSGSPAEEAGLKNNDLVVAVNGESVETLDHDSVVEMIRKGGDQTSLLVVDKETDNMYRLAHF

T5: LRRC7, Q96NW7
T5 sequence (Q96NW7 1440-1537, limits assumed, looked up): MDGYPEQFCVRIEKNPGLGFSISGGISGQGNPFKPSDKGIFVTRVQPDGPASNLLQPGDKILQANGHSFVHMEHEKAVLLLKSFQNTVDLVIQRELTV

T6: SNTG1, Q9NSN8
T6 sequence (Q9NSN8 52-150, limits assumed, looked up): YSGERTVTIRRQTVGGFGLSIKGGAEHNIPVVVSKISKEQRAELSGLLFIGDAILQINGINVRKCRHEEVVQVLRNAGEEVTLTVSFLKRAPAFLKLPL

T7: NHERF3_1, Q5T2W1
T7 sequence (Q5T2W1 4-100, limits assumed, looked up): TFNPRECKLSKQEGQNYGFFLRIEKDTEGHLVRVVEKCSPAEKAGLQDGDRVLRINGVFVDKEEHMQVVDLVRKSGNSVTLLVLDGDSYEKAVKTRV

T8: MPP6, Q9NZW5
T8 sequence (Q9NZW5 125-219, limits assumed, looked up): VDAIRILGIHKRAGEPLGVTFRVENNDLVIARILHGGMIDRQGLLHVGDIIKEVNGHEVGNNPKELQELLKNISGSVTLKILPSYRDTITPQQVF


Target: PICK1, Q9NRD5
Sequence (Q9NRD5 17-115): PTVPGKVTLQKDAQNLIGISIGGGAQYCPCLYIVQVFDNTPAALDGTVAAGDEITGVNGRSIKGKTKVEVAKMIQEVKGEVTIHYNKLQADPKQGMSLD
Experiment: holdup assay
Parameters: key: below the threshold = too weak to quantify, mostly under pKd 3.1 to 4
Conditions: plain residues with an end cap or a label only (N-terminal biotin on a linker: ado-ado)

pKd | Binder
below the threshold | IPLDGETEEL [MYOZ1, Q9NP98]

Target: IL16_1, Q14005
Sequence (Q14005 210-306): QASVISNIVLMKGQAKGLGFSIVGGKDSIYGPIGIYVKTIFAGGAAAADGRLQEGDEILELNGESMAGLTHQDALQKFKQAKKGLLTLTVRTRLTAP
Experiment: holdup assay
Parameters: key: below the threshold = too weak to quantify, mostly under pKd 3.1 to 4
Conditions: plain residues with an end cap or a label only (N-terminal biotin on a linker: ado-ado)

pKd | Binder
below the threshold | IPLDGETEEL [MYOZ1, Q9NP98]

Target: GRASP, Q7Z6J2
Sequence (Q7Z6J2 96-193): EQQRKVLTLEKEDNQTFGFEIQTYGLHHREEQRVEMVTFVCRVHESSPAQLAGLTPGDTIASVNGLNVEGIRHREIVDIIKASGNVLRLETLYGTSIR
Experiment: holdup assay
Parameters: key: below the threshold = too weak to quantify, mostly under pKd 3.1 to 4
Conditions: plain residues with an end cap or a label only (N-terminal biotin on a linker: ado-ado)

pKd | Binder
3.74 | IPLDGETEEL [MYOZ1, Q9NP98]

Target: T1, SNTG2, Q9NY99
Experiment: holdup assay
Parameters: key: below the threshold = too weak to quantify, mostly under pKd 3.1 to 4
Conditions: plain residues with an end cap or a label only (N-terminal biotin on a linker: ado-ado)

pKd | Binder
below the threshold | IPLDGETEEL [MYOZ1, Q9NP98]

Target: Inadl_1, Q8NI35
Sequence (Q8NI35 113-229): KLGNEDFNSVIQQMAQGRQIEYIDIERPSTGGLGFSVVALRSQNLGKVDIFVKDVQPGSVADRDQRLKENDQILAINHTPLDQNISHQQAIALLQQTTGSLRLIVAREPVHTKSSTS
Experiment: holdup assay
Parameters: key: below the threshold = too weak to quantify, mostly under pKd 3.1 to 4
Conditions: plain residues with an end cap or a label only (N-terminal biotin on a linker: ado-ado)

pKd | Binder
below the threshold | IPLDGETEEL [MYOZ1, Q9NP98]

Target: T2, TIAM2, Q8IVF5
Experiment: holdup assay
Parameters: key: below the threshold = too weak to quantify, mostly under pKd 3.1 to 4
Conditions: plain residues with an end cap or a label only (N-terminal biotin on a linker: ado-ado)

pKd | Binder
below the threshold | IPLDGETEEL [MYOZ1, Q9NP98]

Target: DLG1_2, Q12959
Sequence (Q12959 314-412): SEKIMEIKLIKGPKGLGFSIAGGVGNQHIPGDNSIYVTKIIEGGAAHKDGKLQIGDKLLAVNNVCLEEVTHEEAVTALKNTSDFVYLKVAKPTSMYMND
Experiment: holdup assay
Parameters: key: below the threshold = too weak to quantify, mostly under pKd 3.1 to 4
Conditions: plain residues with an end cap or a label only (N-terminal biotin on a linker: ado-ado)

pKd | Binder
below the threshold | IPLDGETEEL [MYOZ1, Q9NP98]

Target: Inadl_3, Q8NI35
Sequence (Q8NI35 359-469): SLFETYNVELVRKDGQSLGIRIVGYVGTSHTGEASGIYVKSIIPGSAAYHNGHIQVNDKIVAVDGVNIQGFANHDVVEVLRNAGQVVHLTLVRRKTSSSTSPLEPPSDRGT
Experiment: holdup assay
Parameters: key: below the threshold = too weak to quantify, mostly under pKd 3.1 to 4
Conditions: plain residues with an end cap or a label only (N-terminal biotin on a linker: ado-ado)

pKd | Binder
below the threshold | IPLDGETEEL [MYOZ1, Q9NP98]

Target: T3, PARD3B_1, Q8TEW8
Experiment: holdup assay
Parameters: key: below the threshold = too weak to quantify, mostly under pKd 3.1 to 4
Conditions: plain residues with an end cap or a label only (N-terminal biotin on a linker: ado-ado)

pKd | Binder
below the threshold | IPLDGETEEL [MYOZ1, Q9NP98]

Target: TJP1_3, Q07157
Sequence (Q07157 416-512): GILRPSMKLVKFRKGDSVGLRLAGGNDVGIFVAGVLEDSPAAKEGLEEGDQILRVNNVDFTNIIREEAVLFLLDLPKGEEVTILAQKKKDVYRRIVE
Experiment: holdup assay
Parameters: key: below the threshold = too weak to quantify, mostly under pKd 3.1 to 4
Conditions: plain residues with an end cap or a label only (N-terminal biotin on a linker: ado-ado)

pKd | Binder
below the threshold | IPLDGETEEL [MYOZ1, Q9NP98]

Target: NHERF4_4, Q86UT5
Sequence (Q86UT5 464-550): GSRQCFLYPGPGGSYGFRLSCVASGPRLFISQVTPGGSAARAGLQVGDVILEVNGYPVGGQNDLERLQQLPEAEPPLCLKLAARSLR
Experiment: holdup assay
Parameters: key: below the threshold = too weak to quantify, mostly under pKd 3.1 to 4
Conditions: plain residues with an end cap or a label only (N-terminal biotin on a linker: ado-ado)

pKd | Binder
below the threshold | IPLDGETEEL [MYOZ1, Q9NP98]

Target: DLG4_2, P78352
Sequence (P78352 155-259): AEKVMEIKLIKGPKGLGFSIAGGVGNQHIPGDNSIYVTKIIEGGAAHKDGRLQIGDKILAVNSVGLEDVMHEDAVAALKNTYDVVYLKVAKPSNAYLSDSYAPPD
Experiment: holdup assay
Parameters: key: below the threshold = too weak to quantify, mostly under pKd 3.1 to 4
Conditions: plain residues with an end cap or a label only (N-terminal biotin on a linker: ado-ado)

pKd | Binder
below the threshold | IPLDGETEEL [MYOZ1, Q9NP98]

Target: T4, NHERF3_3, Q5T2W1
Experiment: holdup assay
Parameters: key: below the threshold = too weak to quantify, mostly under pKd 3.1 to 4
Conditions: plain residues with an end cap or a label only (N-terminal biotin on a linker: ado-ado)

pKd | Binder
below the threshold | IPLDGETEEL [MYOZ1, Q9NP98]

Target: T5, LRRC7, Q96NW7
Experiment: holdup assay
Parameters: key: below the threshold = too weak to quantify, mostly under pKd 3.1 to 4
Conditions: plain residues with an end cap or a label only (N-terminal biotin on a linker: ado-ado)

pKd | Binder
below the threshold | IPLDGETEEL [MYOZ1, Q9NP98]

Target: IL16_4, Q14005
Sequence (Q14005 1229-1329): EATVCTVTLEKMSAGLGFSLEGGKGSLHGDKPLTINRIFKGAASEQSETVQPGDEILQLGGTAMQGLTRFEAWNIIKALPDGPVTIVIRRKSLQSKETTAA
Experiment: holdup assay
Parameters: key: below the threshold = too weak to quantify, mostly under pKd 3.1 to 4
Conditions: plain residues with an end cap or a label only (N-terminal biotin on a linker: ado-ado)

pKd | Binder
below the threshold | IPLDGETEEL [MYOZ1, Q9NP98]

Target: MAST2, Q6P0Q8
Sequence (Q6P0Q8 1099-1202): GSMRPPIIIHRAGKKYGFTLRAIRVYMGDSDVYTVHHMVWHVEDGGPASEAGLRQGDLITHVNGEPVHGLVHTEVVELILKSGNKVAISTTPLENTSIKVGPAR
Experiment: holdup assay
Parameters: key: below the threshold = too weak to quantify, mostly under pKd 3.1 to 4
Conditions: plain residues with an end cap or a label only (N-terminal biotin on a linker: ado-ado)

pKd | Binder
4.41 | IPLDGETEEL [MYOZ1, Q9NP98]

Target: PTPN3, P26045
Sequence (P26045 505-587): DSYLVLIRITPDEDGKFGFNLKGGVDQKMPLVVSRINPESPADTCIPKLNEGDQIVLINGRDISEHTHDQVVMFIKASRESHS
Experiment: holdup assay
Parameters: key: below the threshold = too weak to quantify, mostly under pKd 3.1 to 4
Conditions: plain residues with an end cap or a label only (N-terminal biotin on a linker: ado-ado)

pKd | Binder
4.04 | IPLDGETEEL [MYOZ1, Q9NP98]

Target: T6, SNTG1, Q9NSN8
Experiment: holdup assay
Parameters: key: below the threshold = too weak to quantify, mostly under pKd 3.1 to 4
Conditions: plain residues with an end cap or a label only (N-terminal biotin on a linker: ado-ado)

pKd | Binder
below the threshold | IPLDGETEEL [MYOZ1, Q9NP98]

Target: GRIP2_6, Q9C0E4
Sequence (Q9C0E4 648-740): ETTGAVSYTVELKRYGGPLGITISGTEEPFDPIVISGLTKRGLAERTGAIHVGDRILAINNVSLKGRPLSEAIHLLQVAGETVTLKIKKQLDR
Experiment: holdup assay
Parameters: key: below the threshold = too weak to quantify, mostly under pKd 3.1 to 4
Conditions: plain residues with an end cap or a label only (N-terminal biotin on a linker: ado-ado)

pKd | Binder
below the threshold | IPLDGETEEL [MYOZ1, Q9NP98]

Target: T7, NHERF3_1, Q5T2W1
Experiment: holdup assay
Parameters: key: below the threshold = too weak to quantify, mostly under pKd 3.1 to 4
Conditions: plain residues with an end cap or a label only (N-terminal biotin on a linker: ado-ado)

pKd | Binder
3.48 | IPLDGETEEL [MYOZ1, Q9NP98]

Target: LAP2, Q96RT1
Sequence (Q96RT1 other isoform, or with tags, fused parts or gaps): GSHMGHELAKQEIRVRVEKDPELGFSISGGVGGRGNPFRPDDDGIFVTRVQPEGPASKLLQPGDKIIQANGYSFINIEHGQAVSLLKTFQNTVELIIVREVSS
Experiment: holdup assay
Parameters: key: below the threshold = too weak to quantify, mostly under pKd 3.1 to 4
Conditions: plain residues with an end cap or a label only (N-terminal biotin on a linker: ado-ado)

pKd | Binder
below the threshold | IPLDGETEEL [MYOZ1, Q9NP98]

Target: DLG1_3, Q12959
Sequence (Q12959 457-571): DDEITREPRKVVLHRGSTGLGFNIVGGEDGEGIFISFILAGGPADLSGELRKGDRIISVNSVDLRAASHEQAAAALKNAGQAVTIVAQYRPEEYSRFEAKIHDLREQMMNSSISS
Experiment: holdup assay
Parameters: key: below the threshold = too weak to quantify, mostly under pKd 3.1 to 4
Conditions: plain residues with an end cap or a label only (N-terminal biotin on a linker: ado-ado)

pKd | Binder
below the threshold | IPLDGETEEL [MYOZ1, Q9NP98]

Target: LIMK2, P53671
Sequence (P53671 143-248): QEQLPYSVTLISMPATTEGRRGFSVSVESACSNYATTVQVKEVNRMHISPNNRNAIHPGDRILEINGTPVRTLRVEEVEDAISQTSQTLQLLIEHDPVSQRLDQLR
Experiment: holdup assay
Parameters: key: below the threshold = too weak to quantify, mostly under pKd 3.1 to 4
Conditions: plain residues with an end cap or a label only (N-terminal biotin on a linker: ado-ado)

pKd | Binder
below the threshold | IPLDGETEEL [MYOZ1, Q9NP98]

Target: LDB3, O75112
Sequence (O75112 1-94): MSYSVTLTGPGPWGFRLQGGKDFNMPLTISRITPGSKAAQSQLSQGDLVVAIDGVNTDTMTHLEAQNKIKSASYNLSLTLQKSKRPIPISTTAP
Experiment: holdup assay
Parameters: key: below the threshold = too weak to quantify, mostly under pKd 3.1 to 4
Conditions: plain residues with an end cap or a label only (N-terminal biotin on a linker: ado-ado)

pKd | Binder
4.46 | IPLDGETEEL [MYOZ1, Q9NP98]

Target: PARD3_3, Q8TEW0
Sequence (Q8TEW0 582-685): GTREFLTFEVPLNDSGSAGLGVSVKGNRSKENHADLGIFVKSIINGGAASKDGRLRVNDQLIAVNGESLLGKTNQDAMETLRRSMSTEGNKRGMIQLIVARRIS
Experiment: holdup assay
Parameters: key: below the threshold = too weak to quantify, mostly under pKd 3.1 to 4
Conditions: plain residues with an end cap or a label only (N-terminal biotin on a linker: ado-ado)

pKd | Binder
3.97 | IPLDGETEEL [MYOZ1, Q9NP98]

Target: SCRIB_1, Q14160
Sequence (Q14160 718-814): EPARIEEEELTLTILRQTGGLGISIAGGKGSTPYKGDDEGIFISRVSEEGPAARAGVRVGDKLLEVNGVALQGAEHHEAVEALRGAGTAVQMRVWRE
Experiment: holdup assay
Parameters: key: below the threshold = too weak to quantify, mostly under pKd 3.1 to 4
Conditions: plain residues with an end cap or a label only (N-terminal biotin on a linker: ado-ado)

pKd | Binder
below the threshold | IPLDGETEEL [MYOZ1, Q9NP98]

Target: SCRIB_3, Q14160
Sequence (Q14160 999-1103): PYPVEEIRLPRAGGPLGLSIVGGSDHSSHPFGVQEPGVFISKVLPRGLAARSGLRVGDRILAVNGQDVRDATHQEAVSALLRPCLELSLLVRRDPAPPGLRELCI
Experiment: holdup assay
Parameters: key: below the threshold = too weak to quantify, mostly under pKd 3.1 to 4
Conditions: plain residues with an end cap or a label only (N-terminal biotin on a linker: ado-ado)

pKd | Binder
below the threshold | IPLDGETEEL [MYOZ1, Q9NP98]

Target: ARHGEF12, Q9NZN5-2
Sequence (Q9NZN5 other isoform, or with tags, fused parts or gaps): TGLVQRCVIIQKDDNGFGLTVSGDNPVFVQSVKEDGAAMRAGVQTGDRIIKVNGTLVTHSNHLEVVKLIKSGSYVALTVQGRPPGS
Experiment: holdup assay
Parameters: key: below the threshold = too weak to quantify, mostly under pKd 3.1 to 4
Conditions: plain residues with an end cap or a label only (N-terminal biotin on a linker: ado-ado)

pKd | Binder
below the threshold | IPLDGETEEL [MYOZ1, Q9NP98]

Target: T8, MPP6, Q9NZW5
Experiment: holdup assay
Parameters: key: below the threshold = too weak to quantify, mostly under pKd 3.1 to 4
Conditions: plain residues with an end cap or a label only (N-terminal biotin on a linker: ado-ado)

pKd | Binder
below the threshold | IPLDGETEEL [MYOZ1, Q9NP98]

Target: DLG4_3, P78352
Sequence (P78352 306-403): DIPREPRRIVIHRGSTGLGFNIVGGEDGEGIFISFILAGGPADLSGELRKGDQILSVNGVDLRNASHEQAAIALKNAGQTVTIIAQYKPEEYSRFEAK
Experiment: holdup assay
Parameters: key: below the threshold = too weak to quantify, mostly under pKd 3.1 to 4
Conditions: plain residues with an end cap or a label only (N-terminal biotin on a linker: ado-ado)

pKd | Binder
below the threshold | IPLDGETEEL [MYOZ1, Q9NP98]
